What all share (conditions): 10 mM Tris-HCl pH 7.5, 50 mM KCl, 10 mM MgCl2 (10.1 mM MgCl2 + 0.1 mM EDTA), 23 C; nitrocellulose filter binding, 2 nM-2 uM Fab, 30 min
The subject of data set [1] is Fab HAVx (synthetic (phage display, humanized Fab4D5 framework, YSGRKX library; expressed in E. coli)), PDB:6MWN_2+PDB:6MWN_3. The experiment in a line: filter binding.
The test system of data set [2] is best Fab clone from YSGR library (unnamed) (synthetic (phage display, humanized Fab4D5 framework; expressed in E. coli)). The experiment in a line: filter binding.
In another data set the test system is P0. The data set can be described thus: method not stated in excerpt.

Bounds are passed on as bounds.

Consider “GGCAAACAUCAUUUGGCCUUAAAUGGGAUUCUGUGAGACGGGAUCCCUCCAUUGACAGCUGGACUGUUCUUUGGGGCCUUAUGUGGUGUUUG [HAV dV G631C]”, for which the Kd (usually the concentration at which binding is half-saturated) in data set [1] turned out to be 58 nM.

Turning to “GGCAAACAUCAUUUGGCCUUAAAUGGGAUUCUGUGAGAGGGGAUCCCUCCAUUGACAGCUGGACUGUUCUUUGGGGCCUAUGUGGUGUUUG [HAV dV delU674]”, in data set [1], the Kd was determined as 176 nM.

Consider “GGCAAACAUCAUUUGGCCUUAAAUGGGAUUCUGUGAGAGGGGAUCCCUCCAUUGACAGCUGGACUGUUCUUUGGGGCCUUAGUGGUGUUUG [HAV dV delU672]”, for which, in data set [1], the Kd was greater than 1000 nM.

In the case of “GGCAAACAUCAUUUGGCCUUAAAUGGGAUUCUGUGAGAGGGGAUCCCUCCAUUGACAGCUGGACUGUUCUUUGGGGCCUUAUGUGGUGUUUG [HAV dV (HAV593-684)]”, the Kd in data set [1] turned out to be 44 nM; in data set [2], 290 nM; in the data set with P0, 220 nM.

As for HAV593-706, in data set [1], the Kd worked out at 49 nM.

Take HAV593-720: the Kd in data set [1] was found to be 47 nM.

For the origin of these results see paper PMC6689051.
